According to patent US5877275A, “Controlling cellular immune/inflammatory responses with β2 integrins” (The General Hospital Corporation, priority 1995, dated 1999):

Target: iC3b (Homo sapiens, UniProt P01024)
Test: Binding of soluble heterodimer / wild-type receptor to iC3b-sepharose (elution, SDS-PAGE, autoradiography)
Details: detergent soluble fraction of 125I-surface-labelled neutrophils, immunoprecipitated with 44a mAb from eluate
Experimental: CD11b^1089 /CD18^699 was next tested for its ability to bind iC3b (the receptor bound by wild-type CD11b/CD18). Briefly, COS cells were transfected CD11b^1089 and CD18^699 cDNA as described above. Cells were labeled with ^35 S-methionine as described by Dana et al., J. Clin. Invest. 79:1010 (1987). Supernatants from both co-transfected COS cells (7×10^6 cells) and mock-transfected COS cells (7×10^6 cells) were concentrated to one ml using collodion bags (10,000 MW cut off). 100 μl of the concentrated supernatant were used for immunoprecipitation, and the rest of the supernatant was incubated with C3b-sepharose or iC3b-sepharose. C3b-sepharose and iC3b-sepharose was washed, eluted with 0.4 M NaCl and the eluted proteins were analyzed by SDS-PAGE and autoradiography. Binding of wild-type, membrane-bound CD11b/CD18 to iC3b-sepharose or C3b-sepharose was performed as described by Arnaout et al., (In Methods in Enzymology, DiSabato, Ed., Acad. Press Inc., Fla., 1987) using the detergent soluble fraction from 1×10^8 125 I-surface-labelled neutrophils.
FIG. 3 illustrates the results of SDS-PAGE analysis of neutrophil-derived ^125 I-surface-labeled glycoproteins eluted from C3b-sepharose and iC3b-sepharose. Eluants from C3b-sepharose (lane a) contained complement receptor type 1 (250kD) and the C3-binding regulatory protein gp45/70 (45-70 kD). […]

Chain of iC3b (P01024 23-667 limits assumed): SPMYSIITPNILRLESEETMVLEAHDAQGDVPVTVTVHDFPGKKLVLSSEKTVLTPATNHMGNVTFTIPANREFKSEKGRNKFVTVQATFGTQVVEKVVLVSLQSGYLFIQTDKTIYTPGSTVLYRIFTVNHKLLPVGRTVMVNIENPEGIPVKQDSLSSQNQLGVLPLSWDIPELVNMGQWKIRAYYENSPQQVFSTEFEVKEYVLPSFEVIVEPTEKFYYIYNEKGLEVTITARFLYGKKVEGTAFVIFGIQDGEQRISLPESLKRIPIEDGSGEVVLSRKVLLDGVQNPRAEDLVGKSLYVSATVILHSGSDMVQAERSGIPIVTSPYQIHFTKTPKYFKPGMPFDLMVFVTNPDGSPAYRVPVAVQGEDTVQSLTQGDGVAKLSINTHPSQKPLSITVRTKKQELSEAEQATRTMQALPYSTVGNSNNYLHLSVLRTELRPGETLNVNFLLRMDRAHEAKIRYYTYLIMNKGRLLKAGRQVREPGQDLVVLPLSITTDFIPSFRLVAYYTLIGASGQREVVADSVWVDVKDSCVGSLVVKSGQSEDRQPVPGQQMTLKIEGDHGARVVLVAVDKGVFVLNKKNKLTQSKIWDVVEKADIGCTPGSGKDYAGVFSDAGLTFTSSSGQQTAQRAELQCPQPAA
Chain of iC3b (P01024 749-954 limits assumed): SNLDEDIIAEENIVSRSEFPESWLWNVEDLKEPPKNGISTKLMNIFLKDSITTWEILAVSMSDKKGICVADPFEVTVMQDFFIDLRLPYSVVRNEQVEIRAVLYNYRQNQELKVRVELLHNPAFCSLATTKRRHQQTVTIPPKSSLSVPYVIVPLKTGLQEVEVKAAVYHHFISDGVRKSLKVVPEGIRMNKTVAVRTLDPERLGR
Chain of iC3b (P01024 955-1303 limits assumed): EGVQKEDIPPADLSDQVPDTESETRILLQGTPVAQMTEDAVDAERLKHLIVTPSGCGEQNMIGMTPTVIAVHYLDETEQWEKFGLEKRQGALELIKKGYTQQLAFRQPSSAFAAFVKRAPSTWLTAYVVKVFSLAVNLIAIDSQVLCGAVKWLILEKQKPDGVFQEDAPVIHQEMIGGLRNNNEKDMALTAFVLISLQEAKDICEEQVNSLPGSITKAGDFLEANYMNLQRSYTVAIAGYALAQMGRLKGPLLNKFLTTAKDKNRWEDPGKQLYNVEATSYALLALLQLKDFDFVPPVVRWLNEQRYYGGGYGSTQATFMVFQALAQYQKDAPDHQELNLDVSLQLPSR
Chain of iC3b (P01024 1321-1663 limits assumed): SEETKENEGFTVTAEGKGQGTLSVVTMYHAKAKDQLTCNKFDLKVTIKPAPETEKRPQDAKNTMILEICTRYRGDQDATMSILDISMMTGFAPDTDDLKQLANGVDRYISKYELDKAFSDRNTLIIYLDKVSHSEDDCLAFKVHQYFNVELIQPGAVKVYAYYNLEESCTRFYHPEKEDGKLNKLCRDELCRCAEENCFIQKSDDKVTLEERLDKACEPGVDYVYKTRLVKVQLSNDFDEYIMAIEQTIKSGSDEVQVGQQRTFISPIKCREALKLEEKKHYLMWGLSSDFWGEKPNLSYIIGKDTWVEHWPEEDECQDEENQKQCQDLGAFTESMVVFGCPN

binding to iC3b-sepharose: eluted from iC3b-sepharose
Substance: CD11b/CD18: wild-type, membrane-bound CD11b/CD18 from surface-labelled neutrophils
